In data set [1] the target is T1, elastase I (Sus scrofa, UniProt P00772).
T1 construct: purchased Worthington Biochemical Corporation 2280
The experiment in a line: Elastase I inhibitory activity of crystallin fractions. The class given is biochemical. The procedure:
The bovine crystallin fractions were tested for ability to inhibit elastase I activity.

Data set [2] concerns full thickness 12 mm wound. Nature of the data set: Wound healing assay (Example 3.6). The class given is in vivo, male Lewis rats. To be noted: for Wound areas: mg/wound: Wound heal 1 0.01, Wound heal 2 0.1, Wound heal 3 1.0, Aloe vera 20; for wounds larger than wounds on rats receiving buffered saline only: 1.0 mg/wound. Here is the method:
Thirty male Lewis rats were divided into 5 groups of 6 rats as outlined below in Table 7. Rats were age and weight matched. Rats were permitted rodent diet and water ad libitum throughout the study.
The animals were weighed two days before the start of the trial and weights grouped from lightest to heaviest. Animals were then randomly assigned to groups based on body weights, using 5×5 Latin squares so that group means were as similar as possible.
Approximately 30 minutes before wounding, each animal was given a subcutaneous injection of Temgesic at the base of the neck (0.075 mg/kg body weight). Each animal was anaesthetised using 3% halothane in oxygen. Once the pedal reflexes had been abolished, the animals were shaved from the base of the skull to the hind limb area using electric clippers. The skin on each rat was disinfected using 0.5% chlorhexidine in 70% ethanol. For each animal, the distance from the base of the skull to the top of the hip joint was measured and the wound position marked with a black felt tip pen, 6 cm below the base of the skull along the spinal axis.
Using asceptic techniques a full thickness incision was made at this position using a sterile 12 mm biopsy punch. Any bleeding was removed using cotton swabs. Care was taken that the punch was dry and that no debris (eg., skin, hair) entered the wounds. […] After photography of each wound using a Canon Digital EOS 20D camera with a F2.8 Macro lens, an aliquot of the sample was applied to the wounds on the rats in Groups A, B, D and E using a Gilson Microman CP 100 positive displacement pipette. The biopsy punch was wiped inside with a swab soaked in sterile saline to remove any tissue fluids and/or debris. The punch was then immersed in 70% ethanol before use on the next animal.
For applications and photographs after day 1 the animals were restrained without being anaesthetised.
(§1) Body weights were measured on days 1, 3, 5, 7, 9, 11, 13, 15, 17, 19, 21 and 23 and deviations from original body weights (on day 1) calculated for each animal. On the same days, photographs were taken using a Canon Digital Eos 20D with a F2.8 Macro lens. Photographs were downloaded and wound areas measured using NIH Image J 1.633u software (National Institutes of Health (NIH), Rockville Pike, Bethesda, Md., United States). A laser speckle image was also taken at the same time as each space photograph was taken. Animals were weighed every second day when the photographic record of wound closure rate was also made.
The redness and swelling of each wound were individually scored from visual observation. These were scored on a scale of 0-3 as follows:
Descriptive statistics were evaluated. […] Major analyses were performed on all data points collected. Preliminary analyses were undertaken on control wounds only using t-tests. Univariate ANOVAs were used to assess differences between treatment and controls and samples nested within treatments. A separate ANOVA assessed whether there was a dose response using the treatment samples only. Assumptions for normality were tested using q-q plots on studentized residuals and heterogeneity of variances were tested using Levene's tests. SPSS 11 for Mac OSX was used for assumption testing and statistical analysis.

Data set [3] in a line: Body weight during wound healing assay (Example 3.6). To be noted: PBS control returned by day 11. The class given is in vivo, male Lewis rats. Here is the method:
as §1

The next data set deals with rat aortic ring. Nature of the data set: Rat aortic ring angiogenesis assay (Example 4.3). The class given is cell-based, Lewis rat. To be noted: second study, 200 μg/mL. Here is the method: Four separate studies were carried out to determine the angiogenic effect of crystallin preparations. Each sample was assayed in triplicate. A positive control (VEGF) and a vehicle control containing PBS was also run in triplicate. […] Preliminary statistical significance was assessed with an independent Student t-test at α<0.05. Graphical representation of averages +/− standard errors were determined.
The first study investigated the angiogenic potential of bovine fractions prepared by gel filtration analysis as described in Example 3.2. As described in that Example, the alpha fraction contained αA and αB crystallin, the β H fraction contained all β crystallins, the β L1 fractions contained a sub-fraction of beta crystallins and a high content of βB2 crystallin and beta B3 crystallin and the beta L2 fraction contained only βB2 crystallin and βA3 crystallin.
(§2) The second study investigated the angiogenic potential of purified crystallin proteins. Briefly, βB3 crystallin was prepared by heating (97-99° C. for 3 minutes, supernatant collected by centrifugation) and was essentially homogenous. Alpha A crystallin and αB crystallin samples were prepared by ion exchange chromatography as described above and were also essentially homogenous. The Wound Heal 1-3 preparations were also tested in this study.
The third study investigated the angiogenic potential of ovine crystallin proteins compared to their bovine equivalents. Both bovine and ovine crystallin proteins were purified essentially to homogeneity by RP. HPLC using a C4 column, as described below in Example 5. Homogeneity was confirmed by SDS-PAGE. The effect of elastase I treatment of βB2 crystallin was also investigated by comparing the angiogenic potential of intact βB2 crystallin (i.e. undigested) with elastase I digested βB2 crystallin. Elastase I treatment releases the N-terminal and C-terminal extensions of the crystallin protein leaving a globular protein that is monomeric.
In the final study, ovine βB2 crystallin was tested alone or in combination with indoleamine 2,3-dioxygenase (IDO) and ovine alpha B crystallin was tested alone or in combination with tryptophan dioxygenase (TDO)
Briefly, in each study, a single Lewis rat was euthanised and its aorta transferred to a 15 mL Falcon tube containing 10 mL of MCBD-131 medium and stored on ice. After transferring the aorta to a 92×17 mm petri dish containing 10 mL of ice cold MCDB-131, the outer fatty tissue was removed under an Olympus SZ-60 Dissecting microscope. This was undertaken with fibre optic lamp illumination. The aorta was then cut into sequential rings approximately 2 mm in size. Connective tissue was removed with micro scissors and forceps from the outside of the individual rings. Clean rings were stored in a separate petri dish in sterile MCDB-131 medium. Rings were pre-incubated overnight at 37° C. in an atmosphere of 97% air/3% CO2.
To prepare gel sandwiches, 75 mg of fibrinogen was added to 25 mL MCDB-131 medium and shaken gently on a rocker roller for 5 minutes. 3 ml of MCDB-131/fibrinogen solution was added to a 15 mL Falcon tube, followed by 10 μL of thrombin and quickly mixed. A 0.4 mL volume of this fibrinogen-thrombin solution was added to each well on a 24 well plate, 6 wells at a time. Aortic rings were then placed on the setting gel, pushed gently into the gel and left for 45 minutes. These steps were then repeated so each ring was covered with 0.4 mL of gel. Gels were left to set at room temperature. […] The plate was then placed in incubator (37° C., 97% air/3% CO2).
Culture plate were examined daily for signs of infection (fungal growth or yellowing of media) in the wells using an inverted microscope. The growth of microvessels from their perimeters was also observed. Digital photographs of each well were taken seven days after plating using a Pixera PVC-100C digital camera mounted on an OLYMPUS CK-12 microscope and stored on a Macintosh Computer. […]

The target of data set [4] is T1, elastase I. Nature of the data set: Chaperone activity: protection of elastase I from heat denaturation. The class given is biochemical. To be noted: boiling water bath for 30 seconds. Here is the method: Bovine crystallin fractions were tested for ability to protect the proteases elastase I, trypsin and chymotrypsin from heat denaturation. Briefly, the proteases were heated in a boiling water bath for 30 seconds in the presence or absence of the crystallin fractions.

A short description of data set [5]: Stability to heat treatment. The class given is physicochemical. The procedure: as §2

T1 sequence (P00772 27-266): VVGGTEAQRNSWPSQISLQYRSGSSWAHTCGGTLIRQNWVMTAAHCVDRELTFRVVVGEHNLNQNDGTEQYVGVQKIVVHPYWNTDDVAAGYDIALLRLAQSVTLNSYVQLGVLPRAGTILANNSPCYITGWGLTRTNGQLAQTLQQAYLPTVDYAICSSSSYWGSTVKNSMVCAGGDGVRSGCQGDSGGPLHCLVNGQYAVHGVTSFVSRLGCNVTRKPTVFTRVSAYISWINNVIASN

B1: Gamma S crystallin: gamma S gel filtration fraction of bovine crystallin extract (protein)
chain: SKAGTKITFFEDKNFQGRHYDSDCDCADFHMYLSRCNSIRVEGGTWAVYERPNFAGYMYILPRGEYPEYQHWMGLNDRLSSCRAVHLSSGGQYKLQIFEKGDFNGQMHETTEDCPSIMEQFHMREVHSCKVLEGAWIFYELPNYRGRQYLLDKKEYRKPVDWGAASPAVQSFRRIVE
On to B1, for which the “elastase I inhibitory activity (in words)” value with elastase I [1] is reported as “considerable elastase inhibitory activity”.

B2: Wound Heal 3: bovine αB crystallin, DEAE Sepharose fast flow fractions 37-47; Group D of Example 3 (protein)
chain: MDIAIHHPWIRRPFFPFHSPSRLFDQFFGEHLLESDLFPASTSLSPFYLRPPSFLRAPSWIDTGLSEMRLEKDRFSVNLDVKHFSPEELKVKVLGDVIEVHGKHEERQDEHGFISREFHRKYRIPADVDPLAITSSLSSDGVLTVNGPRKQASGPERTIPITREEKPAVTAAPKK
Take B2: the Wound areas in data set [2] (Day 1 (=100)) is 100; in data set [2] (Day 3), 93; in data set [2] (Day 5), 82; in data set [2] (Day 7), 76; in data set [2] (Day 9) it was 58; in data set [2] (Day 11) it was 34. The Wound areas in data set [2] (Day 13) is 23; in data set [2] (Day 15) it was 15; in data set [2] (Day 17) it was 9; in data set [2] (Day 19), 5; in data set [2] (Day 21) it was 2.5; in data set [2] (Day 23), 1.4. Further, the “wounds larger than wounds on rats receiving buffered saline only” value was found to be 8.8% in data set [2] (day 3), 7.7% in data set [2] (day 7) and 28.7% in data set [2] (day 11). In data set [2] (rat, in vivo), the “healing rate compared to Control group (PBS), in words” value is given as “inhibited the rate of healing”. In addition, the “day by which mean body weight had returned to the starting (pre-wounding) weight” value in data set [3] is not above 12 days. Moreover, the “% of Control” value in the data set on rat aortic ring (microvessel growth) came out at 93.09%. The “chaperone activity: protection of elastase I from heat denaturation (in words)” value with elastase I [4] was “Chaperone activity was observed”.

B3: βB2 crystallin: bovine βB2 crystallin protein (SEQ ID No. 1); in b236 the value is that of Wound Heal 2 (protein)
chain: ASDHQTQAGKPQPLNPKIIIFEQENFQGHSHELNGPCPNLKETGVEKAGSVLVQAGPWVGYEQANCKGEQFVFEKGEYPRWDSWTSSRRTDSLSSLRPIKVDSQEHKITLYENPNFTGKKMEVIDDDVPSFHAHGYQEKVSSVRVQSGTWVGYQYPGYRGLQYLLEKGDYKDSGDFGAPQPQVQSVRRIRDMQWHQRGAFHPSS
modifications: bovine
For the molecule B3, the “increase in microvessel growth (stimulatory)” value with rat aortic ring is given as 21.83%. The “stability to heat treatment (in words)” value in data set [5] is “unstable to heat treatment”.

Source of the values: patent US8404644B2, “Agents with angiogenic and wound healing activity” (Meat & Livestock Australia Limited, priority 2007, dated 2013).
